Key:
[1] = molecular target: Recombinant Human CXADR Fc Chimera Protein (CAR; R&D Systems, 3336-CX-050) (human) (UniProt P78310); test: SPR (BIAcore 3000), receptor amine coupled to CM5 chip, knob as analyte
[2] = molecular target: Recombinant Human Desmoglein-2 Fc Chimera Protein (R&D Systems, 947-DM-100) (human) (UniProt Q14126); test: SPR
[3] = molecular target: CAR on CHO-CAR cells (human) (UniProt P78310)
[4] = molecular target: Recombinant Human CD46 Protein (His Tag) (Sino biological, 12239-H08H) (human) (UniProt P15529); test: SPR (BIAcore 3000), receptor amine coupled to CM5 chip, knob as analyte, equilibrium fit
[5] = molecular target: Recombinant Human Desmoglein-2 Fc Chimera Protein (R&D Systems, 947-DM-100) (human) (UniProt Q14126); test: as above
[6] = molecular target: T1, Recombinant Human CD46 Protein (His Tag) (Sino biological, 12239-H08H) (human, UniProt P15529 35-328); test: SPR
T1 chain: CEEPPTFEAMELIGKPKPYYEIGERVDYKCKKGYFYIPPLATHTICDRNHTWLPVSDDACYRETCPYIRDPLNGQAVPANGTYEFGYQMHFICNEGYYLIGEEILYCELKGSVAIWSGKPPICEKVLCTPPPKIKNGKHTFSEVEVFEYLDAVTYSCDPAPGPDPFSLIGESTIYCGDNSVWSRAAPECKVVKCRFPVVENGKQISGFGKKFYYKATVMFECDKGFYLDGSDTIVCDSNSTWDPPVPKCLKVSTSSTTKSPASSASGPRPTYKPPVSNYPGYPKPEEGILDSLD

[7] = molecular target: T2, Recombinant Human Desmoglein-2 Fc Chimera Protein (R&D Systems, 947-DM-100) (human, UniProt Q14126 50-609); test: SPR
T2 chain: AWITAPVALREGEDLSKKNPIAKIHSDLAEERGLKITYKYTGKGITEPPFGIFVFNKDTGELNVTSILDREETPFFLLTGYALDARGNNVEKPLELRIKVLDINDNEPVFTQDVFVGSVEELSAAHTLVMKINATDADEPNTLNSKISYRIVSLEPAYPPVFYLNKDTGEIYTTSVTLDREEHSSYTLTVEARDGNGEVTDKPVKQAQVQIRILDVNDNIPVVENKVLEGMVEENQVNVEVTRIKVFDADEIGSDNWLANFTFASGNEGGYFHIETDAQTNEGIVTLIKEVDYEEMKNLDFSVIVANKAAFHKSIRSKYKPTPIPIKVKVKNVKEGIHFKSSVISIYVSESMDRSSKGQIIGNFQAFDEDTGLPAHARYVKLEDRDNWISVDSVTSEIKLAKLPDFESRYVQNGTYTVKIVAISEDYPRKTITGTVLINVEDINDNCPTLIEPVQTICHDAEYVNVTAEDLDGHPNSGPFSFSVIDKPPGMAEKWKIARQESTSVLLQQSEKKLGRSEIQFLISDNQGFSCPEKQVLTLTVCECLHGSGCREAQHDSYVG

Chain of Recombinant Human CXADR Fc Chimera Protein (CAR; R&D Systems, 3336-CX-050) (human) (P78310 20-237, change not shown): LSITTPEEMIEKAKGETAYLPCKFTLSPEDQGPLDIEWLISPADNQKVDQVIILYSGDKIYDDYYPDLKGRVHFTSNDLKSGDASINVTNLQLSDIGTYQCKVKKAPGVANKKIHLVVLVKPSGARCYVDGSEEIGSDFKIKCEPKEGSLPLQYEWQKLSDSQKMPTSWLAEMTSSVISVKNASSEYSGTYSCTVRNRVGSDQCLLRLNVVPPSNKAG
Chain of CAR on CHO-CAR cells (human) (P78310 20-365): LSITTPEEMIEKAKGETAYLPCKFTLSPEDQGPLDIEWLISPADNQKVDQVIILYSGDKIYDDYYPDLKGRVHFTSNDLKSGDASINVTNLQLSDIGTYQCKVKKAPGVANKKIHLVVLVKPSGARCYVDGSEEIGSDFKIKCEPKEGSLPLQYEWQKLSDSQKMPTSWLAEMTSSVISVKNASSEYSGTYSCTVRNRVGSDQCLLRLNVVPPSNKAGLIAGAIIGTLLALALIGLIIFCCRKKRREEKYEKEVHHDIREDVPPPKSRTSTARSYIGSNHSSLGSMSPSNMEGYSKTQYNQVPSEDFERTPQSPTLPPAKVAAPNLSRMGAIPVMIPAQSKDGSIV

## Recombinant HAdV-C5 fiber knob protein (from UniProt P11818 387-581)
[1]
  Kd: 0.00076 µM
[2]
  Kd: 125 µM

## Recombinant HAdV-D10 fiber knob protein
[3]
  fold lower affinity than HAdV-C5 (by IC50 values): 16.5 fold
[1]
  Kd: 0.44 µM
[4]
  Kd: 20 µM
[5]
  Kd: 125 µM

B1: HAdV-B3k (other)
chain: TFDSSNSIALKNNTLWTGPKPEANCIIEYGKQNPDSKLTLILVKNGGIVNGYVTLMGASDYVNTLFKNKNVSINVELYFDATGHILPDSSSLKTDLELKYKQTADFSARGFMPSTTAYPFVLPNAGTHNENYIFGQCYYKASDGALFPLEVTVMLNKRLPDSRTSYVMTFLWSLNAGLAPETTQATLITSPFTFSYIREDD
[6]
  Kd: 0.16 µM
[7]
  Kd: 66.9 µM

Reference: patent US20240180982A1 (published 2024)
